Experiment: yeast display, Sf9 membrane polyspecificity reagent, FACS + sequencing; frameworks hold sequencing errors
Procedure, shortened: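 A synthetic nanobody library was expressed on Saccharomyces cerevisiae BJ5465 by galactose induction for 36–48 hours. The library was stained for 1 hour at 4 °C with 10% biotinylated, detergent-solubilized Sf9 membrane reagent and enriched with streptavidin microbeads before FACS. Low and high (top ~1%) gates were set on anti-HA fluorescence for expression and streptavidin fluorescence for reagent binding, and each polyreactivity label reflects the gate of origin.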

| Sequence | polyreactivity (PSR sort gate) |
| --- | --- |
| QVQLVESGGGLVQAGGSLRLSCAASGLIFPYYVMGWYRQAPGKERELVAAITWSGGRTYYADSVKGRFTISRDNAKNTVSLQMNSLKPEDTAVYYCAATYWTIDYWGQGTQVTVSS | low polyreactivity |
| QVQLVESGGGLVQAGGSLRISCAASGRTFSGNAMGWYRQAPGKERELVAAISSGGSTNYADSVKGRFTISRDNAKNTVYLQMNSLKPEDTAVYFCARDAYLPRIADGDGRYELVDYWGHGTQVTVSS | low polyreactivity |
| QVHLVESGGGLVQAGGSLRLSSAASGRIFKYYTMGWYRHAPGKERELVASITGTGGSTYYADSVKGRFTISRDNAKNTVYLQMNRLKPEDTAVYYCAARLSVLGGYRGRNAWRFDHWGQGTKVTVSS | high polyreactivity |
| QVQLEESGGGLVQAGGSLRLSCAASGSTIDYYTMGWYRQAPGKERELVAAISSSGGSTYYADSVKGRFTISRDNAKNTVYLQMNSLKPEDTAVYYCNSDSWYPDHFSYYGPYDYWGQGTQVTVSS | low polyreactivity |
| QVHLVESGGALVQAGGRLRLSCAASGSIFGRNAMGWYRQAPGKERELVAVISKRSGNTYYADSVKGRFTISRDNAKNTVYLQMNSLKPEHTAVYYCNAVDQKLLRYDYWGQGTEVTVSS | high polyreactivity |
| QVQLVESGGGLVQAGGSLRLSCAASGRTFFYYTMGWYRQAPGKERELVAAITYSGTSTYYADSVKGRFTISRDNAKNTVYLQMNSLKPEDTAVYYCAADWYVTHQGYTSGIWYVEYDYWGQGTQVTVSS | low polyreactivity |
| QVQLVESGGGLDQAGGSLRLTCAASGSTFRVYAKGSYSQAPRKERELGAAISRSGGSTTDYADSVKGRFTISRENAKNTVYLQINSLNPEDTAVYFCSDRDYKVQKIYDYWGLGTQVTVSS | low polyreactivity |
| QDQLVESGGGLVQAGGSHRLSCAASGSTFLGNTMGWYRQAPRKERELVAAISSSGTSTYYADSVKGRFTISRDNAKNTVYLQMNSLKPEDTAVYYCAAVIRVWWGFGDKYDYWGQGTQVTVAS | high polyreactivity |
| QVQLVESGGGLVQAGGSLRLSCAASGSIFYHYAMGWYRQAPGKERELVATINWSGGSTYYADSVKGRFTISRDNAKNTVYLQMNSLKPEDTAVYYCYSDSAIGLYVSSTPYGYDYWGQGTQVTVSS | low polyreactivity |
| QVQLVESGGGLVQAGGSLRLSCAASGRTFVNYAMGWYSQAPGKERELVAAISWTDDDTYYADSVKGRFTISRDNAKNTVYLQMNSLKPEDTAVYYCATDYDSYDYWGQGTQVTVSS | low polyreactivity |
| QVQLVESVGGLVQAGGSLRLSCAASGSIFRSYAMGWYRQAPGKERELVAAISWSGASTYYADSVKGRFTISRDNAKNTVYLQMNSLKPEDTAVYYCAARPRYWRWYSGDYWGQGTQVTVSS | high polyreactivity |
| QVQLVESGGGIVQAGGSLRLSCAASGFTFKKYAMGWYRQAPGKERELVAAISRSGGRTYYADSVKGRFTISRDNAKNTVFLQMNSLKPEDTAVYYCNADYYSAAYYYWGQGTQVTVSS | high polyreactivity |
| QVQLVESGGGLVQAGGSLRLRCAASGSIFWYYTMGWYRQAPGIERELVATLTRSGSRTYDADSVKGRCTISRDNAKNTVYLQMNSLKPEDTAVYYCAKDYGPWTYDYWGQGTQVTVSS | low polyreactivity |
| QVQLVESGGGLVQAGGSLRLSCAASGSIIAINAMGWYRQAPGKERDLVAAISWNTGTTYYADSVKGRFTISRDNAKNTVYLQMNSLKPEDTAVYYCAADLWRWESLYKIWLPQYDYWGQGTQVTVSS | high polyreactivity |
| QVQLVESGGGLVQAGGSLRLSCAASGYIFTYYAMGWYRQAPGKERELVAAISTSGTSTYYADSVKGRFTISRDNAKNTVYLQMNSLKPEDTAVYYCAKRSGARHRLMDYWGQGTQVTVSS | low polyreactivity |
| QVQIVESGGGLVQAGGSLRLSCAASGRTFRGNVMGWSRQAPGKEREFVAAITRSGSNTYYADSVKGRFTISRDNAKNTVYLQMNSLKPEDTAVYYCAKSVLLGYKRHDSWGQGTQVTVSS | high polyreactivity |

| Sequence | polyreactivity (PSR sort gate) |
| --- | --- |
| QVQLVESGGGLVQAGGSLRLSCAASGIIFSIYAMGWYRQAPGKERELVAVISRSSGSTYYADSVKGRFTISRDNAKNTVYLQMNSLKPEDTAVYYCAADRYSYGSNGYPRFEYYYWGQGTQVTVSS | high polyreactivity |
| QVQLVESGGGLVQAGGSLRLSCAASGSTFVYNTMGWYRQAPGKERELVAAISKSGTNTFYADSVKGRFTISRDNAKNTVYLQMNSLKPEDTAVYYCAVRSVPRWFTELDYWGQGTQVTVSS | low polyreactivity |
| QVQLVESGGGLVQAGGSLRLSCAASGRTFSYYTLGWYRQAPGKERELVARISNRGTNTYYADSVKGRFTISRDNAKNTVYLQMNSLKPEDTAVYYCAAYTPPVYWLTRAIRGYYWGQGTQVTVSS | low polyreactivity |
| QVQLVESGGGLVQAGGSLRLSCAASGLTFSGYSMGWYRQAPGKERELVAAITSGGNTYYADSVNGRFTISRDNAKNTVYLQMNSLKPEDTAVYYCNVADWRRWGYDYWGQGTQVTVSS | low polyreactivity |
| QVQLVESGGGLVQAGGSLRLSCAASGFTFYRYAMGCYRQAPGKERELVAAITSSGGNTYYADSVKGRFTISRDNGKNTVYLQMNSLKPEDTAVYYCAKYTRIRFEYEYWGLGTQVTVSS | high polyreactivity |
| QVQLVESGGGLVQAGGSLRLSCAASGSTFYVYGMGWYRQAPGKERELVATISSSGAITYYADSVKGRFTISRDNAKNTVYLQMNSLKPEDTAVYYCARTGSLLSQVWYTYWGQGTQVTVSS | low polyreactivity |
| QVQLVESGGGLVQAGGSLRLSCAASGFIFGYYAMGWYRQAPGKERELVAAMSRGGITYYADSVNGRFTISRDNAKNTVYLQMNSLKPEDTAVYYCAAPNRYSVPMYYWGQGTQVTVSS | low polyreactivity |
| QVQLVESGGGLVQAGGSLRLSCAASGRTFASNDMGWYRHAPGNERELVAGITGSGGSTYYADSVKGRFTISRDNAKNTVYLQMNSLKPEDTAVYYCAADRSRGYGYDYWGQGTQVTVSS | low polyreactivity |
| QVQLVESGGGLVQAGGSLRLSCAASGSIFVIYAMGWYRPAPGKERELVAAITGRGGRTYYADSVKGRFTISRDNAKNTVYLQMISLKPEDNAVYYCAADSVYTLGLKYDYWGHGTQVTVSS | high polyreactivity |
| QVQLVESGGGLVQAGGSLRLSCAASGYTFQYYTMGWYRQAPGKERELVAAISSSGGRTYYADSVKGRFTISRDNAKNTVYLQMNSLKPEDTAVYYCAATYSYRSDYYSWGQGTQVTVSS | high polyreactivity |
| QVQLVESGGGLVQAGGSLRLSCAASGFTFYYYAMGWYRQAPGTEMELVAALSRSGVRTYYADSVNGRFTISRDNGKNTVYLQMTSLKPEDTAVYYCAAEFARSRMNYWGQGTKVTVSS | high polyreactivity |
| QVQLVESGGGLVQAGGSLRLSCAASGFTFDTYGMGWYRQAPGKERELVAAITGDGDSTYYADSVKGRFTISRDNAKNTVYLQMNSLKPEDTAVYYCATDQDVVGYWTIYYYAWGYEYCGQGTQVTVSS | low polyreactivity |
| QVQLVESGGGLVQAGGSLRISCAASGRTFPGNAMGWYRQAPGKERELVAAISWSGTRTYYADSVKGRFTISRDNAKNTVYLQMNSLKPEDTAVYYCNVVVKGAWDYYPYDYWGQGTQVTVSS | high polyreactivity |
| QVQLVESGGGLFQAGGSLRLSCAPSGSIFTTYAMGWYRQAPGKERELVAAITDTCSTNYADSVKGRFTISRDNAKNTVYLQMNSLKPEDTAVYYCAVDLGYEYDWGQGTEVTVSS | low polyreactivity |
| QVQLVESVGCLVQPGGSLRLSCATSGSIFLLYARGWYRQPPGKERELVAAITSSGGSTNYADSVKGRITISRDTAKNTVYLQMNSLKPEDTEVYYSATAPYAYTILGSRFDYWGKGTQVTVSS | low polyreactivity |

Reference: the nanobody polyreactivity screen of Harvey et al. (2022)
